# B1: MMP-9CAT (soluble MMP-9 catalytic domain) (enzyme)
# chain: FQTFEGDLKWHHHNITYWIQNYSEDLPRAVIDDAFARAFALWSAVTPLTFTRVYSRDADIVIQFGVAEHGDGYPFDGKDGLLAHAFPPGPGIQGDAHFDDDELWSLGKGQGYSLFLVAAHEFGHALGLDHSSVPEALMYPMYRFTEGPPLHKDDVNGIRHLY
# modifications: Active enzyme, catalytic and structural Zn2+ and Ca2+ (assay buffer has 5 mM CaCl2). Limits are not printed in the text given. Taken by convention from the MMP-9 catalytic domain lacking the …
# Target: T1, HD_(N-TIMP2,V3) bi-specific heterodimer (N-TIMP2 fused by a linker to V3, the engineered soluble …)
# T1 construct: flexible linker; Order on the chain: N-TIMP2, linker, V3, human IgG1 Fc, 6xHis; Vector pFUSE-hIgG1e3-Fc1; Glycosylated; also called bi-specific fusion protein; source: HEK293F, transiently transfected, secreted, purified (Ni-NTA, gel filtration); not shown: Fc (human IgG1), C-terminal, kept
# Experiment: BLI; Octet Red; HD_(N-TIMP2,V3) or V3 loaded on Protein A sensors (10 ug/ml, 300 s); IL-17A or MMP-9CAT in solution at 50, 100, 200 nM; 300 s association, 1800-2500 s dissociation; 30 C; PBS, 1% BSA, 0.05% Tween; 1:1 binding model
# Details: both partners purified
binder,measurement,value
B1,Kd,1.65 ± 0.02 nM

# Source: article PMC6033355, “A bi-specific inhibitor targeting IL-17A and MMP-9 reduces invasion and motility in MDA-MB-231 cells” (Oncotarget, 2018)
